Values quoted from earlier work in article PMC8330535.
pKd: −log10 of the molar value.

Biological target: ARNT PAS-B (Homo sapiens) (UniProt P27540)
Details: cited from earlier work

ARNT PAS-B (Homo sapiens), sequence (P27540 356-470): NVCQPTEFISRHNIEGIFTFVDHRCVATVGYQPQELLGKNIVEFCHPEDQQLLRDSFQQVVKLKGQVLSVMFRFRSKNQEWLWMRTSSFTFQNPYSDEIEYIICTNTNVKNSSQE
HIF-1α PAS-B, sequence (Q16665 238-349): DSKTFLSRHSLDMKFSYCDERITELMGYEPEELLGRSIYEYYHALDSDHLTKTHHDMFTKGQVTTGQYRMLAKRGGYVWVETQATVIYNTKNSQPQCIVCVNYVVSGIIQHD

**Q.** With HIF-1α PAS-B (from UniProt Q16665) as the substance, how does the pKd read?
**A.** 6.90
